One assay concerns the target HLA-A*03:01. As to the kind of experiment: IEDB peptide-MHC binding, purified MHC/competitive/radioactivity; ≥ and ≤ were set here for values at or beyond the usual limits of such assays.
For assay [1], the target named is HLA-A*11:01. Described as above.
Assay [2] deals with HLA-A*30:01. The description is as above. The settings on record: source organism: Mus musculus.
Another assay concerns the target HLA-A*31:01. The description is as above.
Assay [3] addresses HLA-A*33:01. The assay is described as above.
The next assay concerns the target HLA-A*68:01. The description is as above.
For assay [4], the target named is HLA-A*66:01. As to the kind of experiment: IEDB peptide-MHC binding, purified MHC/competitive/radioactivity; filed as Kd, often an IC50 or EC50 that approximates it; ≥ and ≤ were set here for values at or beyond the usual limits of such assays. Conditions: source organism: Mus musculus.
Assay [5] has as its target HLA-A*66:01. As to the kind of experiment: IEDB peptide-MHC binding, purified MHC/competitive/radioactivity; ≥ and ≤ were set here for values at or beyond the usual limits of such assays.
A further assay concerns the target HLA-B*07:02. The description is as above.
A further assay concerns the target HLA-B*42:01. The assay is described as above.
For another assay, the target named is HLA-B*53:01. The assay is described as above.
The target of assay [6] is HLA-A*11:01. As to the kind of experiment: IEDB peptide-MHC binding, purified MHC/competitive/radioactivity; filed as Kd, often an IC50 or EC50 that approximates it; ≥ and ≤ were set here for values at or beyond the usual limits of such assays. The settings on record: source organism: Mus musculus.
Assay [7] has as its target HLA-A*30:01. The description is as above. The settings on record: source organism: Homo sapiens.
The next assay concerns the target HLA-B*35:03. Nature of the assay: IEDB peptide-MHC binding, purified MHC/competitive/radioactivity; ≥ and ≤ were set here for values at or beyond the usual limits of such assays. The settings on record: source organism: Mus musculus.
Another assay deals with HLA-B*35:01. As to the kind of experiment: IEDB peptide-MHC binding, purified MHC/competitive/radioactivity; filed as Kd, often an IC50 or EC50 that approximates it; ≥ and ≤ were set here for values at or beyond the usual limits of such assays. Conditions: source organism: Mus musculus.
The next assay deals with HLA-B*51:01. Described as above. Conditions: source organism: Mus musculus.
The target of another assay is HLA-B*54:01. The assay is described as above. Conditions: source organism: Mus musculus.
Assay [8] concerns the target HLA-A*33:01. The description is as above. Conditions: source organism: Homo sapiens.

pIC50, pKd: −log10 of the molar value.

As to TLALEVARQK, the pIC50 (as a rule, the negative decadic logarithm of the IC50, by convention in mol/L) is 6.22 with HLA-A*03:01 (source organism: Mus musculus); 5.48 with HLA-A*11:01 [1] (source organism: Mus musculus); 4.63 with HLA-A*30:01 [2]; 4.89 with HLA-A*31:01 (source organism: Mus musculus); 4.59 with HLA-A*33:01 [3] (source organism: Mus musculus); 4.87 with HLA-A*68:01 (source organism: Mus musculus). Moreover, the pKd (as a rule, −log10 of the Kd, conventionally taken in molar units) with HLA-A*66:01 [4] was ≤ 4.30.

Take AINSEMFLR: the negative-log IC50 (pIC50) with HLA-A*03:01 (source organism: Mus musculus) was 6.37; with HLA-A*11:01 [1] (source organism: Mus musculus), 6.68; with HLA-A*30:01 [2], 4.30; with HLA-A*31:01 (source organism: Mus musculus), 7.17; in the assay with HLA-A*33:01 [3] (source organism: Mus musculus), 5.97; in the assay with HLA-A*66:01 [5] (source organism: Mus musculus), 5.34. For the same sequence, the negative-log IC50 (pIC50) with HLA-A*68:01 (source organism: Mus musculus) was 6.96.

For GPGAGSLQPLAL, the pIC50 with HLA-B*07:02 (source organism: Homo sapiens) was 6.34; in the assay with HLA-B*42:01 (source organism: Homo sapiens) it was 5.22; with HLA-B*53:01 (source organism: Homo sapiens), 4.81.

For the sequence LALEVARQKR, the negative logarithm of the IC50 (pIC50) with HLA-A*03:01 (source organism: Mus musculus) is 4.36; with HLA-A*30:01 [2], 4.37; with HLA-A*31:01 (source organism: Mus musculus) it was 4.97; with HLA-A*33:01 [3] (source organism: Mus musculus), 5.04; in the assay with HLA-A*66:01 [5] (source organism: Mus musculus) it was 4.89; with HLA-A*68:01 (source organism: Mus musculus) it was 4.90. The pKd with HLA-A*11:01 [6] was ≤ 4.30.

LALEGSLQKR: the pIC50 with HLA-A*03:01 (source organism: Homo sapiens) is 4.76; with HLA-A*11:01 [1] (source organism: Homo sapiens) it was 4.46; with HLA-A*31:01 (source organism: Homo sapiens), 4.42; with HLA-A*33:01 [3] (source organism: Homo sapiens), 5.49; with HLA-A*66:01 [5] (source organism: Homo sapiens) it was 6.29; with HLA-A*68:01 (source organism: Homo sapiens), 7.18. For the same sequence, the negative-log Kd (pKd) with HLA-A*30:01 [7] is ≤ 4.30.

On to SPGDLQTLAL, for which the pIC50 with HLA-B*07:02 (source organism: Mus musculus) is 8.36; in the assay with HLA-B*35:03 it was 4.79; in the assay with HLA-B*42:01 (source organism: Mus musculus), 7.46; with HLA-B*53:01 (source organism: Mus musculus), 4.96. Also, the pKd with HLA-B*35:01, with HLA-B*51:01 and with HLA-B*54:01 was ≤ 4.30 throughout.

In the case of PLALEGSLQ, the pIC50 in the assay with HLA-A*03:01 (source organism: Homo sapiens) was 4.68; with HLA-A*11:01 [1] (source organism: Homo sapiens), 4.43; in the assay with HLA-A*31:01 (source organism: Homo sapiens), 4.40; in the assay with HLA-A*66:01 [5] (source organism: Homo sapiens) it was 4.31; with HLA-A*68:01 (source organism: Homo sapiens), 4.38. Further, the pKd with HLA-A*30:01 [7] and with HLA-A*33:01 [8] was ≤ 4.30 throughout.

For the origin of these results see the Immune Epitope Database (IEDB).
